Experimental data taken from the supplement of paper PMC10065799, “High-throughput profiling of sequence recognition by tyrosine kinases and SH2 domains using bacterial peptide display” (eLife, 2023).

How the values were obtained:
c-Src SH2 = test: SH2 binding enrichment of the phosphorylated peptide, bacterial display (enrichment ratio); higher = better substrate or ligand; peptides without Tyr show the background
Grb2 SH2 = Grb2 SH2 (UniProt P62993); test: as above
SHP2-C SH2 = test: as above
Fyn = Fyn (UniProt P06241); test: phosphorylation enrichment, bacterial display (enrichment ratio); higher = better substrate or ligand; peptides without Tyr show the background
Chain of Fyn (P06241 whole entry, looked up): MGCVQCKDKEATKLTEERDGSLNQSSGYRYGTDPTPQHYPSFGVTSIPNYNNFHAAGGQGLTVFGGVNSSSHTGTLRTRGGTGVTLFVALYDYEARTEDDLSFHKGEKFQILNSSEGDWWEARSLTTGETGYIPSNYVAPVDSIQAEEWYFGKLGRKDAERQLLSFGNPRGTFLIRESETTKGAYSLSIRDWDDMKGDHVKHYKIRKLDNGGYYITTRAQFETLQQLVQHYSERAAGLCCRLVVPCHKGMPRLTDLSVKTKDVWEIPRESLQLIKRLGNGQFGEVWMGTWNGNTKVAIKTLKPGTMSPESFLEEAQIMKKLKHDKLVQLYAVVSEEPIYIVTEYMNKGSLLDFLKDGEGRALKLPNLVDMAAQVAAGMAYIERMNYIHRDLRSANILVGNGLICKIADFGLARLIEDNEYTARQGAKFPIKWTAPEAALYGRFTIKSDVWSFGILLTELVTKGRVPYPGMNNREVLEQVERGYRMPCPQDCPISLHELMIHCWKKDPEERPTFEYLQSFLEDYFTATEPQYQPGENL

EPHB1 = EPHB1 (UniProt P54762); test: as above
c-Src = test: as above
Fes = Fes (UniProt P07332); test: as above
Chain of Fes (P07332 whole entry, looked up): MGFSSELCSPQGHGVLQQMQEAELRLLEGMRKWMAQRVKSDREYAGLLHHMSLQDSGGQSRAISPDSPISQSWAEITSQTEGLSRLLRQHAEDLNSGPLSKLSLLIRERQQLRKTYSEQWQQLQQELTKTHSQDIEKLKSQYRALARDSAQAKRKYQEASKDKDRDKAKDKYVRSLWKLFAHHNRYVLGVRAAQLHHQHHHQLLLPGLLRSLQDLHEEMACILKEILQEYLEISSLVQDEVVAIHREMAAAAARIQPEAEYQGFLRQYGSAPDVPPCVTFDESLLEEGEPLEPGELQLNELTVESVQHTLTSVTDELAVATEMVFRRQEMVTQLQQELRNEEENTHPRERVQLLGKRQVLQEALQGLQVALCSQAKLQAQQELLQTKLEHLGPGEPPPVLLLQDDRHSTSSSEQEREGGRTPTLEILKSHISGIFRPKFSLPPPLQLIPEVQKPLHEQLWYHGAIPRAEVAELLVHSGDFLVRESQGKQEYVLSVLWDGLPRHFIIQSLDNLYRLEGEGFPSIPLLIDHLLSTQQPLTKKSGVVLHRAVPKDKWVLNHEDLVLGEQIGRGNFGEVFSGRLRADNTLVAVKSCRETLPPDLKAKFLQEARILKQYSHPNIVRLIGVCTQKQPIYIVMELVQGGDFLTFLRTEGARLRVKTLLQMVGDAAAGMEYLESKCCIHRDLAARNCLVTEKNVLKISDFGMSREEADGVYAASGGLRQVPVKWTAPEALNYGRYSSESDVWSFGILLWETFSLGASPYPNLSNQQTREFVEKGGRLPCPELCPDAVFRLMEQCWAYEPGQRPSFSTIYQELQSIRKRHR

FGFR3 = FGFR3 (UniProt P22607); test: as above
Chain of FGFR3 (P22607 whole entry, looked up): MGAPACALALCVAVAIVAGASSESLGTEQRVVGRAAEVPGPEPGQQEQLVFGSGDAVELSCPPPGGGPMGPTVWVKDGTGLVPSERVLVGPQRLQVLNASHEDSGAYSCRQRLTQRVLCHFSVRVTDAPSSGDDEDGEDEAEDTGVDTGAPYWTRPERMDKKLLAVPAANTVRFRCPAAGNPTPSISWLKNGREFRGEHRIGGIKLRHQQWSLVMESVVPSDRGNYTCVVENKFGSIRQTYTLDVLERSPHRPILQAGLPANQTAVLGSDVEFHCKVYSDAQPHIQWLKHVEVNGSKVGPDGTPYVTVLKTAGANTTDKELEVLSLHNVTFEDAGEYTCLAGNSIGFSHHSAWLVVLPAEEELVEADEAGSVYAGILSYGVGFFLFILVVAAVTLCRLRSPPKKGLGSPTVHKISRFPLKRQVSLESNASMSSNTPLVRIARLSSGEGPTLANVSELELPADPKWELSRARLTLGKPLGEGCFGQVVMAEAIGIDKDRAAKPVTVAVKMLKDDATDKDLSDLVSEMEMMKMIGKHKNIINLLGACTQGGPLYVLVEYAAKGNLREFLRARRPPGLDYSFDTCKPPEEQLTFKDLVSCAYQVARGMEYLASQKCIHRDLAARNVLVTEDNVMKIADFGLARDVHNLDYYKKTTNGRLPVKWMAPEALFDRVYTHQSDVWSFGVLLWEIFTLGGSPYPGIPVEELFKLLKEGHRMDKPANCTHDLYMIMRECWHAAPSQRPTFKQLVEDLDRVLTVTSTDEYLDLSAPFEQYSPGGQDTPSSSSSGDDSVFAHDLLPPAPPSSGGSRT

Hck = Hck (UniProt P08631); test: as above
Chain of Hck (P08631 whole entry, looked up): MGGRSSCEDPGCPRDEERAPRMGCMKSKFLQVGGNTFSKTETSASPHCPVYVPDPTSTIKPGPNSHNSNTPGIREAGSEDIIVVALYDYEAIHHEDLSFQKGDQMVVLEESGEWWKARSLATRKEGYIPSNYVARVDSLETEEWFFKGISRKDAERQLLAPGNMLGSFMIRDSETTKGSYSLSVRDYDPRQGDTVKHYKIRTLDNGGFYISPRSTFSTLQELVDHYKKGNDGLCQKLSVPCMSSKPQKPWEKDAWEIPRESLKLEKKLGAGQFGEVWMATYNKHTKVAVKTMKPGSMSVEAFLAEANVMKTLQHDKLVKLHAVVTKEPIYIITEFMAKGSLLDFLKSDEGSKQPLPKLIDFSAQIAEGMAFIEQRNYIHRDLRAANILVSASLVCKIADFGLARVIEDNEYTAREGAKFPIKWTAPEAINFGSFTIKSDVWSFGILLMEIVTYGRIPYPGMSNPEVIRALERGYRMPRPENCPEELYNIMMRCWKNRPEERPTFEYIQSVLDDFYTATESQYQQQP

EPHB2 = EPHB2 (UniProt P29323); test: as above
c-Abl (mouse) = test: as above
FGFR1 = FGFR1 (UniProt P11362); test: as above
Fer (mouse) = test: as above
AncSZ = test: as above
MERTK = MERTK (UniProt Q12866); test: as above
Chain of MERTK (Q12866 whole entry, looked up): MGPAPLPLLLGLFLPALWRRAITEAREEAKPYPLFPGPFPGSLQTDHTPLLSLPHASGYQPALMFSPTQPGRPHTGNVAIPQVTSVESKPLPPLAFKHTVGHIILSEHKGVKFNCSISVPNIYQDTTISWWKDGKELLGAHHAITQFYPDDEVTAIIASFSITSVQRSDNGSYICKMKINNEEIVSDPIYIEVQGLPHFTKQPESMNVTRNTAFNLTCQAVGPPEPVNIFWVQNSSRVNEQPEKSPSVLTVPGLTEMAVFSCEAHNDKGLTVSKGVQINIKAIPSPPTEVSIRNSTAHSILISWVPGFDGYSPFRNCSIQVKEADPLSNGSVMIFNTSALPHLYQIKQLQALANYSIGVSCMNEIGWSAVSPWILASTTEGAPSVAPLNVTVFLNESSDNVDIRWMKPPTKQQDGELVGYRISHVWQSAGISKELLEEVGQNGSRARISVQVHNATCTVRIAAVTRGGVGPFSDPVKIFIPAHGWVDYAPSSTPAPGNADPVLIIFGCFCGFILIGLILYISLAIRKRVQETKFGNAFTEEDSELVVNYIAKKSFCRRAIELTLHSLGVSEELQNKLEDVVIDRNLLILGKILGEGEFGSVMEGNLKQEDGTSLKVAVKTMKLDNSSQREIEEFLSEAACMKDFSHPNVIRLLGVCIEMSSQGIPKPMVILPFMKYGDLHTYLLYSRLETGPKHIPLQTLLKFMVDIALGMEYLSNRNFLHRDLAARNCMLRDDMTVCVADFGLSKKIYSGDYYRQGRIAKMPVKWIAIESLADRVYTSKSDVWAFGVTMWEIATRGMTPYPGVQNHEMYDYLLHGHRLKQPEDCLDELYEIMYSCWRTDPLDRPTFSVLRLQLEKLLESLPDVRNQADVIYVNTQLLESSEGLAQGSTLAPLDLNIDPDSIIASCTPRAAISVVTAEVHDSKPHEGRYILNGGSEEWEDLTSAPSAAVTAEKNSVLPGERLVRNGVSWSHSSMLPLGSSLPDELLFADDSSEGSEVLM

Jak2 = Jak2 (UniProt O60674); test: as above
Chain of Jak2 (O60674 whole entry, looked up, the tested form may be a part): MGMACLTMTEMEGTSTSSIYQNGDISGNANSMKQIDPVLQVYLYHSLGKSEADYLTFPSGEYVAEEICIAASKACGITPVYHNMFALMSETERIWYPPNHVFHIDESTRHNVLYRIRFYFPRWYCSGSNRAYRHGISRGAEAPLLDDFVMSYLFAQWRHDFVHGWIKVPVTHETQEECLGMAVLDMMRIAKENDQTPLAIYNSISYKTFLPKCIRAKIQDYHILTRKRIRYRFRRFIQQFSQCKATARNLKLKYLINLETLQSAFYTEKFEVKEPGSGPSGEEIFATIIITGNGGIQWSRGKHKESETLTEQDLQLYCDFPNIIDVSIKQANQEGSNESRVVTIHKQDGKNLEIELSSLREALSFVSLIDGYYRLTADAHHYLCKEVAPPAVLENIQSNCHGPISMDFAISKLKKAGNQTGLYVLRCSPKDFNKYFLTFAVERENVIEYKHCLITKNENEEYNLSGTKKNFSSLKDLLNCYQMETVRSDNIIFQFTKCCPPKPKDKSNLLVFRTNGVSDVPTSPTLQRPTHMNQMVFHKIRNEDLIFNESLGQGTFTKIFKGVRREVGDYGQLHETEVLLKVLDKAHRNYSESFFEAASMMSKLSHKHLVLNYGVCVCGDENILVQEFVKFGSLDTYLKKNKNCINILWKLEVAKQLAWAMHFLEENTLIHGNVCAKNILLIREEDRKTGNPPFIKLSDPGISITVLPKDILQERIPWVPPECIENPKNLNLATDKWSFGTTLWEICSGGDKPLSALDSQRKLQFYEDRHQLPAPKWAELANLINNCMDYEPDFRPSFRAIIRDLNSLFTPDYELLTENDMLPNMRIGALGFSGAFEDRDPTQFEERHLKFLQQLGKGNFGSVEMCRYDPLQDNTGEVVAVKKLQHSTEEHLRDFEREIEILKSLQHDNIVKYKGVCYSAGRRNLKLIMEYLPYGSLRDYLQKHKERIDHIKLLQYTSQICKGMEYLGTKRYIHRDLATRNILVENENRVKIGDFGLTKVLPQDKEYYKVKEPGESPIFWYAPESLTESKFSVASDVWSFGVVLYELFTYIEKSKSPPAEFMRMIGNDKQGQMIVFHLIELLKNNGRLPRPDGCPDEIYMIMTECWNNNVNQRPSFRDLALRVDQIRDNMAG
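Wherever SH2 binding enrichment of the phosphorylated peptide, bacterial display is given: peptide library displayed on the E. coli surface as eCPX fusions, selected cells deep-sequenced, score is each peptide's frequency after selection divided by its frequency in the input.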
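Wherever phosphorylation enrichment, bacterial display is given: 11-residue human phosphosite peptides and single-mutation variants displayed on the E. coli surface, counted by deep sequencing, each peptide's frequency after selection divided by its frequency in the unselected input library; frequency after pTyr selection over input frequency; kinase dosed for 20-30% of maximal phosphorylation in three min.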

Chain of Grb2 SH2 (P62993 whole entry, looked up): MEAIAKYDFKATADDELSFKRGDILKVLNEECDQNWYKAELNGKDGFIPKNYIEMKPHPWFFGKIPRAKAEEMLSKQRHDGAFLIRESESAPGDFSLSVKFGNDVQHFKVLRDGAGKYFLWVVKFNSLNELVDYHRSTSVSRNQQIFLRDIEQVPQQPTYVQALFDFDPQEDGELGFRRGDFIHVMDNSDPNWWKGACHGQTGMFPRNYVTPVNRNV

Sequence	SH2 binding enrichment (c-Src SH2)	SH2 binding enrichment (Grb2 SH2)	SH2 binding enrichment (SHP2-C SH2)	phosphorylation enrichment (Fyn)	phosphorylation enrichment (EPHB1)	phosphorylation enrichment (c-Src)	phosphorylation enrichment (Fes)	phosphorylation enrichment (FGFR3)	phosphorylation enrichment (Hck)	phosphorylation enrichment (EPHB2)	phosphorylation enrichment (c-Abl (mouse))	phosphorylation enrichment (FGFR1)	phosphorylation enrichment (Fer (mouse))	phosphorylation enrichment (AncSZ)	phosphorylation enrichment (MERTK)	phosphorylation enrichment (Jak2)
VGEGPYLISDL [ABCC12_Y7]	0.414	0.786	0.663	0.507	0.65	0.752	1.01	0.734	0.483	0.5	0.768	0.466	0.578	0.952	0.468	1.05
KLKRSYPSPDI [USP8_Y717_S718P]	0.378	0.773	0.723	0.374	0.374	0.469	0.546	0.411	0.381	0.291	0.547	0.352	0.339	0.436	0.467	0.58
SVTCTYSPTLN [TP53_Y126_A129T]	0.469	0.639	0.551	0.566	0.92	0.58	1.58	0.912	0.625	0.682	0.926	0.606	0.667	1.48	0.503	1.4
LRGEDCGFSVD [PRKCI_Y430_Y430C]	0.841	0.925	0.615	0.631	2.18	1.48	2.77	1.41	0.987	1.14	1.97	0.847	0.886	1.94	1.25	2.49
NTTIHYNFMCN [TP53_Y234_C229N_YF]	0.598	0.848	0.701	0.495	0.698	0.46	1.24	0.828	0.511	0.618	0.782	0.542	0.557	1.14	0.427	1.02
DFRTTYVNANE [KCNH2_Y475_N470D]	2.81	23.1	2.23	0.491	0.366	0.378	0.781	0.596	0.44	0.512	0.405	0.414	0.38	0.732	0.415	0.649
YPLELYERVRM [PRKCG_Y312]	1.11	1.02	0.83	0.518	2.02	0.699	1.25	0.622	1.65	1.18	0.632	0.481	3.71	1.19	0.432	1.25
DLTQDSEEWKR [ORC6_Y232_Y232S]	0.588	0.837	0.823	0.463	0.616	0.476	1.09	0.661	0.614	0.576	0.676	0.495	0.456	1.02	0.489	1.07
IGRWVYPLTPE [EIF2B5_Y319_R315G]	0.62	0.962	0.878	0.49	0.563	0.502	1.02	0.646	0.509	0.58	0.717	0.564	0.461	1.33	0.551	0.874
PAEPRYRARQR [KCNJ11_Y26]	0.474	0.675	0.788	0.746	0.635	0.958	0.718	0.599	0.878	0.722	0.737	0.576	0.673	1.02	0.929	1
SPDMLYQYLKQ [RPAP3_Y567]	0.68	1.21	0.659	1.18	3.35	1.96	0.692	2.04	8.16	1.78	0.856	3.36	11.6	1.09	7.39	0.727
LTSKPYAFTAR [NDUFS1_Y236]	0.533	0.684	0.767	0.722	0.617	0.534	1.1	1.36	0.58	1.08	0.453	0.67	0.591	0.663	0.649	0.398
LLVVLNKYRCY [PSEN1_Y154_Y154N]	0.536	0.952	0.79	0.631	1.03	0.577	1.6	1.39	0.448	0.875	0.96	0.73	0.53	1.34	0.456	1.68
VSYDEYRYRSF [CFTR_Y515_V520F]	0.676	0.72	0.717	0.548	0.69	0.939	0.951	0.606	0.598	0.467	0.916	0.486	0.435	0.89	0.522	0.983
FVPSNYVAEDR [FRK_Y104_I100V_YF]	0.588	0.788	0.76	0.439	0.527	0.35	0.827	0.662	0.431	0.625	0.625	0.447	0.409	0.782	0.38	0.642
TDRNLYSKNLV [CFAP58_Y501_S496T]	0.408	0.769	0.559	0.465	0.555	0.627	0.737	0.531	0.654	0.56	0.66	0.505	1.35	0.564	0.959	0.758
APQFTYTQGGQ [FLNA_Y1763_A1764T_YF]	0.597	0.75	0.503	0.5	0.444	0.42	0.681	0.582	0.395	0.536	0.444	0.482	0.423	0.602	0.367	0.552
